This data set in a line: collision cross section of modified peptide (TIMS, N2, iRT-aligned); higher = larger / more extended gas-phase ion. The method, boiled down: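 Synthetic peptide pools (~100 fmol/µL in 2% acetonitrile/0.1% formic acid, iRT standard spiked 1:40) were separated on a 120-min nanoflow C18 gradient at 60 °C. They were analysed on a timsTOF Pro/HT (dda-PASEF, nitrogen, ~2.4 mbar) and identified with MaxQuant. 1/K0 was calibrated with three reference ions and aligned run-wise to the median iRT peptide deviation. Collision cross section came from the Mason-Schamp equation, averaging 1–3 technical replicates of the most abundant feature per charge state.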

Setting [1] is: charge state: 2, modification: Malonyl.
Where [2] appears, read: charge state: 2, modification: Formyl.
[3] abbreviates: charge state: 2, modification: Butyryl.
Setting [4] is: charge state: 3, modification: Butyryl.
The mark [5] stands for this setting: charge state: 2, modification: Hydroxyproline.
The mark [6] stands for this setting: charge state: 2, modification: Citrullination (R).
Setting [7] is: charge state: 3, modification: Citrullination (R).
[8] abbreviates: charge state: 3, modification: GlyGly (K).
The mark [9] stands for this setting: charge state: 3, modification: Methyl (R).
Setting [10] is: charge state: 2, modification: Methyl (K).
Setting [11] is: charge state: 3, modification: Methyl (K).
Where [12] appears, read: charge state: 2, modification: Methyl (R).
Setting [13] is: charge state: 3, modification: Dimethyl (K).
Setting [14] is: charge state: 2, modification: hydroxyisobutyryl.
Where [15] appears, read: charge state: 3, modification: hydroxyisobutyryl.
Where [16] appears, read: charge state: 2, modification: GlyGly (K).
[17] abbreviates: charge state: 3, modification: Trimethyl (K).
[18] abbreviates: charge state: 2, modification: Trimethyl (K).
The mark [19] stands for this setting: charge state: 2, modification: Acetyl (K).
The mark [20] stands for this setting: charge state: 2, modification: Dimethyl (K).
[21] abbreviates: charge state: 2, modification: Glutarylation.
The mark [22] stands for this setting: charge state: 2, modification: Succinyl.
The mark [23] stands for this setting: charge state: 3, modification: Succinyl.
Where [24] appears, read: charge state: 3, modification: Glutarylation.
The mark [25] stands for this setting: charge state: 2, modification: Biotin.
Where [26] appears, read: charge state: 3, modification: Biotin.
[27] abbreviates: charge state: 3, modification: Acetyl (K).

± gives the standard deviation.

Under setting [1], “DKALPLEAEVAPVK [_DK(Malonyl)ALPLEAEVAPVK_]” gave a collision cross section of 414.83 ± 0.6 Å². Turning to TPNLYIYSKK [_TPNLYIYSK(Malonyl)K_], the collision cross section under setting [1] is recorded as 383.2 ± 0.78 Å². With IQTKAGEATVK [_IQTK(Formyl)AGEATVK_], under setting [2], the collision cross section was 359.75 ± 0.38 Å². “LLIVSTTPYSEKDTK [_LLIVSTTPYSEK(Butyryl)DTK_]”: the collision cross section stood at 459.06 ± 0.51 Å² under setting [3] and 488.4 ± 2.4 Å² under setting [4].

As for PGNSGIR [_P(Hydroxyproline)GNSGIR_], the collision cross section under setting [5] is recorded as 280.46 ± 3.1 Å². Turning to “GARLPGPVSSAR [_GAR(Citrullination (R))LPGPVSSAR_]”, the collision cross section is, setting by setting: under setting [6], 355.27 ± 6 Å²; under setting [7], 446.63 Å².

“VFIGNLNTLVVKKK [_VFIGNLNTLVVK(GlyGly (K))KK_]” yielded a collision cross section under setting [8] of 502.69 ± 1.1 Å². Consider “SRGAIISQYYNR [_SR(Methyl (R))GAIISQYYNR_]”, for which the collision cross section under setting [9] came to 476.32 ± 1.6 Å².

In the case of “DESFLGKLGGTLAR [_DESFLGK(Methyl (K))LGGTLAR_]”, the collision cross section is given as 408.12 ± 0.81 Å² under setting [10] and 471.83 ± 2.8 Å² under setting [11]. Turning to “SGNLTEDDKHNNAK [_SGNLTEDDK(Methyl (K))HNNAK_]”, the collision cross section is 417.49 ± 1.1 Å² under setting [10] and 487.35 ± 2.7 Å² under setting [11]. Regarding VRFHNPR [_VR(Methyl (R))FHNPR_], the collision cross section worked out at 340.13 ± 1.8 Å² under setting [12] and 406.89 ± 0.36 Å² under setting [9].

For “GGGGGRGGLHDFR [_GGGGGR(Citrullination (R))GGLHDFR_]”, the collision cross section is, setting by setting: under setting [6], 380.63 ± 2.7 Å²; under setting [7], 438.48 ± 1.8 Å². As for AQPQDSRGGSK [_AQPQDSR(Methyl (R))GGSK_], the collision cross section under setting [12] is 351.96 ± 2.1 Å².

“DFDTALKHYDK [_DFDTALK(Dimethyl (K))HYDK_]” registered a collision cross section under setting [13] of 452.29 ± 1.2 Å². With IYHPNVDK [_IY(Nitro (Y))HPNVDK_], the collision cross section (charge state: 2, modification: Nitro (Y)) is listed as 340.06 ± 0.72 Å² and the collision cross section (charge state: 3, modification: Nitro (Y)) was 427.49 ± 0.064 Å². For the substance “VQGGALEDSQLVAGVAFKK [_VQGGALEDSQLVAGVAFK(hydroxyisobutyryl)K_]”, the collision cross section is 481.48 Å² under setting [14] and 565.17 ± 3.4 Å² under setting [15]. As to GAEKTEVAEPR [_GAEK(Formyl)TEVAEPR_], the collision cross section under setting [2] is 371.26 ± 0.89 Å².

With “GTGRGGGGGGGGGAPR [_GTGR(Methyl (R))GGGGGGGGGAPR_]”, the collision cross section under setting [9] was found to be 445.93 ± 3.2 Å². With “ANEKTESSSAQQVAVSR [_ANEK(hydroxyisobutyryl)TESSSAQQVAVSR_]”, the collision cross section runs as follows: under setting [14], 442.41 ± 0.29 Å²; under setting [15], 538.5 ± 0.04 Å². For the substance “SSGPGGQNVNKVNSK [_SSGPGGQNVNK(GlyGly (K))VNSK_]”, the collision cross section turned out to be 407.13 ± 1.4 Å² under setting [16] and 459.52 ± 3 Å² under setting [8]. For “VYVGNLGTGAGK [_VY(Phospho (Y))VGNLGTGAGK_]”, where the note is “charge state: 2, modification: Phospho (Y)”, the collision cross section is recorded as 364.53 ± 0.064 Å². Regarding “VQGGALEDSQLVAGVAFKK [_VQGGALEDSQLVAGVAFK(Methyl (K))K_]”, the collision cross section was determined as 497.72 Å² under setting [10] and 546.3 ± 1.2 Å² under setting [11]. Regarding LDEKENLSAK [_LDEK(Butyryl)ENLSAK_], under setting [3], the collision cross section was determined as 370.93 ± 0.84 Å². For the substance “VFIGNLNTLVVKK [_VFIGNLNTLVVK(Butyryl)K_]”, the collision cross section under setting [3] amounted to 414.54 ± 0.53 Å² and the collision cross section under setting [4] turned out to be 490.12 Å².

As for “SHLRHAIPSAER [_SHLR(Methyl (R))HAIPSAER_]”, the collision cross section reads like this: under setting [12], 404.4 Å²; under setting [9], 477.29 ± 19 Å². “IVEKYGYTHLSAGELLR [_IVEK(Trimethyl (K))YGYTHLSAGELLR_]” registered a collision cross section under setting [17] of 554.1 ± 0.025 Å².

Consider “DAEAAEATAEGALKAEK [_DAEAAEATAEGALK(Trimethyl (K))AEK_]”, for which the collision cross section came to 469.97 ± 1 Å² under setting [18] and 535.87 ± 1.1 Å² under setting [17]. For “SNEEGSEEKGPEVR [_SNEEGSEEK(Acetyl (K))GPEVR_]”, under setting [19], the collision cross section is 400.7 ± 1 Å². As for VNALKNLQVK [_VNALK(Acetyl (K))NLQVK_], the collision cross section under setting [19] turned out to be 369.79 ± 0.48 Å². On to “DTGEKLTVAENEAETK [_DTGEK(Dimethyl (K))LTVAENEAETK_]”, for which the collision cross section is, setting by setting: under setting [20], 442.93 ± 0.72 Å²; under setting [13], 481.58 ± 2.1 Å².

IQTKAGEATVK [_IQTK(Acetyl (K))AGEATVK_]: the collision cross section under setting [19] was found to be 364.34 ± 0.62 Å².

“HFGPVPPSQGRGR [_HFGPVPPSQGR(Methyl (R))GR_]”: the collision cross section under setting [9] is recorded as 491.26 ± 0.38 Å². Regarding “SSGPGGQNVNKVNSK [_SSGPGGQNVNK(Trimethyl (K))VNSK_]”, the collision cross section is 400.23 ± 1.6 Å² under setting [18] and 442.26 ± 2.4 Å² under setting [17]. In turn, “ASEALLKQLK [_ASEALLK(Gluratylation)QLK_]” gave a collision cross section under setting [21] of 377.97 ± 0.1 Å². For the substance IISSIEQKEENK [_IISSIEQK(Malonyl)EENK_], the collision cross section under setting [1] stood at 405.63 ± 0.59 Å². For “SLEEEGAAHSGKR [_SLEEEGAAHSGK(Succinyl)R_]”, the collision cross section stood at 416.07 ± 1.8 Å² under setting [22] and 470.94 ± 2.7 Å² under setting [23]. Turning to “VTLEVGKVIQQGR [_VTLEVGK(GlyGly (K))VIQQGR_]”, the collision cross section is reported as 431.32 ± 0.96 Å² under setting [16] and 486.06 ± 1.6 Å² under setting [8].

Regarding “ATVASSTQKFQDLGVK [_ATVASSTQK(Gluratylation)FQDLGVK_]”, the collision cross section by setting is: under setting [21], 449.16 ± 1.1 Å²; under setting [24], 497.84 ± 1.7 Å².

In turn, “SKLLFSNTAAQK [_SK(Gluratylation)LLFSNTAAQK_]” yielded a collision cross section under setting [21] of 403.03 ± 0.5 Å².

For “VGVEVPDVNIEGPEGKLK [_VGVEVPDVNIEGPEGK(hydroxyisobutyryl)LK_]”, the collision cross section under setting [14] amounted to 459.37 ± 1.3 Å². Take “YEQEHAAIQDKLFQVAK [_YEQEHAAIQDK(Gluratylation)LFQVAK_]”: under setting [24], the collision cross section came out at 519.4 ± 1.2 Å². Take “DSSPTTNSKLSALQR [_DSSPTTNSK(Biotin)LSALQR_]”: the collision cross section under setting [25] is on record as 447.16 ± 2.3 Å² and the collision cross section under setting [26] was 519.36 ± 0.34 Å². For the substance “GSLGAQKLANTCFNEIEK [_GSLGAQK(Acetyl (K))LANTCFNEIEK_]”, under setting [19], the collision cross section is given as 470.8 Å².

On to “GGGDRGGFGPGK [_GGGDR(Methyl (R))GGFGPGK_]”, for which the collision cross section under setting [12] was determined as 341.42 ± 0.86 Å² and the collision cross section under setting [9] is given as 412.06 ± 3 Å².

As for IGNSYFKEEK [_IGNSYFK(Formyl)EEK_], the collision cross section under setting [2] worked out at 368.62 ± 0.55 Å². Regarding “APPIDRSILPTAPR [_APPIDR(Citrullination (R))SILPTAPR_]”, the collision cross section came to 410.86 ± 0.21 Å² under setting [6] and 480.52 ± 0.41 Å² under setting [7]. As for VETTVTSLKTK [_VETTVTSLK(Acetyl (K))TK_], the collision cross section is, setting by setting: under setting [19], 378.83 ± 0.45 Å²; under setting [27], 444.47 Å². On to “SRGAIISQYYNR [_SR(Citrullination (R))GAIISQYYNR_]”, for which the collision cross section by setting is: under setting [6], 408.9 ± 1.3 Å²; under setting [7], 483.76 Å².

As to “VPTTEKPTVTVNFR [_VPTTEK(hydroxyisobutyryl)PTVTVNFR_]”, the collision cross section is recorded as 429.55 ± 0.83 Å² under setting [14] and 512.54 ± 2 Å² under setting [15]. Regarding “ISSNFSSIIAEKLR [_ISSNFSSIIAEK(GlyGly (K))LR_]”, the collision cross section runs as follows: under setting [16], 443.53 ± 6.7 Å²; under setting [8], 502.71 ± 1.1 Å².

For the substance “IVEKYGYTHLSAGELLR [_IVEK(Succinyl)YGYTHLSAGELLR_]”, the collision cross section was found to be 498.62 ± 0.45 Å² under setting [22] and 565.13 ± 1.1 Å² under setting [23]. Take “ASDTSSETVFGKR [_ASDTSSETVFGK(GlyGly (K))R_]”: the collision cross section is, setting by setting: under setting [16], 414.9 ± 1.4 Å²; under setting [8], 487.28 ± 2 Å². Under “charge state: 2, modification: HexNAc (ST)”, “FGVEAFSDCLR [_FGVEAFS(HexNAc (ST))DCLR_]” showed a collision cross section of 398.33 ± 0.63 Å².

“DVNAAIAAIKTK [_DVNAAIAAIK(Acetyl (K))TK_]” returned a collision cross section under setting [19] of 390.07 ± 14 Å² and a collision cross section under setting [27] of 457.21 Å². Turning to “PSVGSQSNQAGQGKR [_PSVGSQSNQAGQGK(Dimethyl (K))R_]”, the collision cross section is, setting by setting: under setting [20], 425.54 ± 3 Å²; under setting [13], 470.05 ± 1.2 Å².

In the case of DFDTALKHYDK [_DFDTALK(Biotin)HYDK_], the collision cross section is 424.89 ± 0.23 Å² under setting [25] and 488.66 Å² under setting [26]. Take “LGPPGNPGPSGSPGPK [_LGPPGNP(Hydroxyproline)GPSGSPGPK_]”: the collision cross section runs as follows: under setting [5], 386.54 ± 0.27 Å²; (charge state: 3, modification: Hydroxyproline) 431.89 Å².

The values are drawn from the supplement of paper PMC10598134.
